The labels stand for the following.
T1: FcRL2, overexpressed on 3T3 cells (UniProt Q96LA5 20-508, limits assumed)
T1 construct: whole, on cells
T1 sequence (looked up): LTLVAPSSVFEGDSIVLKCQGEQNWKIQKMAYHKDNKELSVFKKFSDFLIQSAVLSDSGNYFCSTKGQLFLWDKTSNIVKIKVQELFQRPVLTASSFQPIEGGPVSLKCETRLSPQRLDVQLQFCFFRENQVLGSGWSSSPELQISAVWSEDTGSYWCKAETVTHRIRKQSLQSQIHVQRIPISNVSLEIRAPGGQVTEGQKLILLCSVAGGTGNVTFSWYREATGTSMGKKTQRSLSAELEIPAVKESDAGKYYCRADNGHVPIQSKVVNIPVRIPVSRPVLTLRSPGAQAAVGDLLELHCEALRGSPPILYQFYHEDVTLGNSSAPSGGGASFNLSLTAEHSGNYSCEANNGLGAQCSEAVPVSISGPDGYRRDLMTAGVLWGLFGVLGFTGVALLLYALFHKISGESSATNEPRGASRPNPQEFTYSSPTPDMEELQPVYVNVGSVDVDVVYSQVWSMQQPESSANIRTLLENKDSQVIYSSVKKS

T2: FcRL3, overexpressed on 3T3 cells (UniProt Q96P31 18-734, limits assumed)
T2 construct: whole, on cells
T2 sequence (looked up): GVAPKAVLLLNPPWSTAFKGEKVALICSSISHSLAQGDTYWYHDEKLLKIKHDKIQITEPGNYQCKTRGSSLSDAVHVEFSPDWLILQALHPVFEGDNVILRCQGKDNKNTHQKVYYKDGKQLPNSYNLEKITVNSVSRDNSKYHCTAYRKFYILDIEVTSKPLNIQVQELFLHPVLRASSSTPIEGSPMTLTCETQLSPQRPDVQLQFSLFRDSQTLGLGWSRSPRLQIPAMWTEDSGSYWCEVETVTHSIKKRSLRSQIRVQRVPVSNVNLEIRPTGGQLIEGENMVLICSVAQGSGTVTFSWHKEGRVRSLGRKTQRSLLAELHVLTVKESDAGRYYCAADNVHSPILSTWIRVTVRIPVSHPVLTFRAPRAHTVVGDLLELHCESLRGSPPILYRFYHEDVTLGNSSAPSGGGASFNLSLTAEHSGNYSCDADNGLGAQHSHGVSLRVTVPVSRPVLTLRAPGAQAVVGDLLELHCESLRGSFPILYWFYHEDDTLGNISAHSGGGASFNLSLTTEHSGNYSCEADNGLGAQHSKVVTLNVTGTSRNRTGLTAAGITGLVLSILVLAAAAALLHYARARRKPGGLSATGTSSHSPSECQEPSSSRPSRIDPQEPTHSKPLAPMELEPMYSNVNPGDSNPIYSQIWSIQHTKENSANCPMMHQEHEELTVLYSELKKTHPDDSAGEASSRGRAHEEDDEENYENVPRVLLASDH

T3: FcRL4, overexpressed on 3T3 cells (UniProt Q96PJ5 20-515, limits assumed)
T3 construct: whole, on cells
T3 sequence (looked up): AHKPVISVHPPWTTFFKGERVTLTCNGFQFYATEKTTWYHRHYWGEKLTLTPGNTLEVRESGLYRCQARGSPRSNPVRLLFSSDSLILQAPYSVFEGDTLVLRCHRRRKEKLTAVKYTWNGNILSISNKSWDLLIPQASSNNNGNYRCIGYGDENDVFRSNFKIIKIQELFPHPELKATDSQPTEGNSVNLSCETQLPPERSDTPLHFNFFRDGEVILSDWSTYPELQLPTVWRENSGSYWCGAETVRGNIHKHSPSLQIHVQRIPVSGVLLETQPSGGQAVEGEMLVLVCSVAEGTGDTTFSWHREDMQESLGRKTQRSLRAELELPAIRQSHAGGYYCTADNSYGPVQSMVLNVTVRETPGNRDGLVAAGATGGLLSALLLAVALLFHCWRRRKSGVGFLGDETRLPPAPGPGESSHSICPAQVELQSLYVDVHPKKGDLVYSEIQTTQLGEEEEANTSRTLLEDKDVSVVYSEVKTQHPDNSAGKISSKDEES

T4: FcRL6, overexpressed on 3T3 cells (UniProt Q6DN72 20-434, limits assumed)
T4 construct: whole, on cells
T4 sequence (looked up): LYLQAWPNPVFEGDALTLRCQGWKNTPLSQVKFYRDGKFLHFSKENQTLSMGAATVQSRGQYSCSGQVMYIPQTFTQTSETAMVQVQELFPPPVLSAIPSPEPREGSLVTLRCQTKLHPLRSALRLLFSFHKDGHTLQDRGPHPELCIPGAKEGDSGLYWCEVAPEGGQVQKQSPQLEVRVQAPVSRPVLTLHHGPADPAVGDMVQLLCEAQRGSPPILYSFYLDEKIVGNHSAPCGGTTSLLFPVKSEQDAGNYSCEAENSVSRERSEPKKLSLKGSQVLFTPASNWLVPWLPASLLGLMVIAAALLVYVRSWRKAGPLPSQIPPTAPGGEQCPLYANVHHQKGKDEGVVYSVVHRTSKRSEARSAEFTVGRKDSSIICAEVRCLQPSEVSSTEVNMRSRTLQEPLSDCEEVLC

B1: ET200-005 (scFv)
scFv: QPVLTQPPSVSVVPGKTARITCGGKNIGSKSVHWYQQKPGQAPVVVIHYDSDRPSGIPERFSGSNSGNTATLTISRVEAGDEADYYCQVWDSSSDHPYVFGTGTKVTVLGSRGGGGSGGGGSGGGGSLEMAQVQLVQSGAEVKKPGASVKVSCKASGYTFTNYGISWVRQAPGQGLEWMGWISAYNGNTNYAHKLQGRVTMTTDTSTSTANMELRSLRPDDTAVYYCARSYFGSHDYWGQGTLVTVSSTSGQAGQHHHHHHGAYPYDVPDYAS
notes: screened as phage clone; entry is VL-linker-VH-His tag-HA tag
B2: ET200-124 (scFv)
scFv: SYVLTQPPSVSVAPGKTARISCGGNDIGSKSVFWYQQRPGQAPVLVVYDDSDRPSGLPERFSGFNSGNTATLTISRVEAGDEADYYCQVWDSSSDHYVFGTGTKVTVLGSRGGGGSGGGGSGGGGSLEMAQVQLVESGGGLVQPGRSLRLSCAASGFTFDDYAMHWVRQAPGKGLEWVSGISWNSGSIGYADSVKGRFTISRDNAKNSLYLQMNSLRAEDTALYYCAKDITYGSGSYGAFDIWGQGTMVTVSSTSGQAGQHHHHHHGAYPYDVPDYAS
notes: as for B1
B3: ET200-009 (scFv)
scFv: QSVLTQPPSASGTPGQTVTISCSGSNSNIGSNYVYWYQQLPGTAPKLLIYRNNQRPSGVPDRFSGSKSGTSASLAISGLRSEDEADYYCAAWDDSLSAYVFGTGTKVTVLGSRGGGGSGGGGSGGGGSLEMAQVQLVQSGAEVKKPGASVKVSCKASGYTFTSYGISWVRQAPGQGLEWMGWISAYNGNTNYAQKLQGRVTMTTDTSTSTAYMELRSLRSDDTAVYYCARSSGNMVSWKDMWGQGTLVTVSSTSGQAGQHHHHHHGAYPYDVPDYAS
notes: as for B1
B4: ET200-008 (scFv)
scFv: QSALTQPASVSGSPGQSITISCTGTSSDVGGYNYVSWYQQHPGKAPKLMIYDVSNRPSGVSNRFSGSKSGNTASLTISGLQAEDEADYYCSSYTSSSTSKVFGGGTKLTVLGSRGGGGSGGGGSGGGGSLEMAEVQLVESGGGVVRPGGSLRLSCAASGFTFGDYGMSWVRQAPGKGLEWVSGINWNGGSTGYADSVKGRFTISRDNAKNSLYLQMNSLRAEDTAVYYCARSKYNFHVYYDYWGQGTLVTVSSTSGQAGQHHHHHHGAYPYDVPDYAS
notes: as for B1
B5: ET200-118 (scFv)
scFv: QAVLTQPASVSGSPGQSITISCTGTSSDVGGYNYVSWYQQHPGKAPKLMIYEVSNRPSGVSNRFSGSKSGNTASLTISGLQAEDEADYYCSSYTSSSTPYVFGAGTKVTVLGSRGGGGSGGGGSGGGGSLEMAEVQLVESGGGLVQPGRSLRLSCAASGFTFDDYAMHWVRQAPGKGLEWVSGISWNSGSIGYADSVKGRFTISRDNAKNSLYLQMNSLRAEDTALYYCAKARWTAVASDHHFDYWGQGTLVTVSSTSGQAGQHHHHHHGAYPYDVPDYAS
notes: as for B1
B6: ET200-121 (scFv)
scFv: QSVLTQPPSVSGAPGQRVTVSCTGSRSNIGAGYDVHWYQQLPGTAPKLLIYGNSNRPPGVPDRFSGSKSGTSASLVITGLQAEDAADYYCQSYDNTVRESPYVFGTGTKVTVLGSRGGGGSGGGGSGGGGSLEMAEVQLVQSGAEVKKPGASVKVSCKVSGYTLTELSMHWVRQAPGKGLEWMGGFDPEDGETIYAQKFQGRVTMTEDTSTDTAYMELSSLRSEDTAVYYCATESNLVSRHYYYYGMDVWGQGTTVTVSSTSGQAGQHHHHHHGAYPYDVPDYAS
notes: as for B1
B7: ET200-125 (scFv)
scFv: NFMLTQPHAVSESPGKTVTISCTRSSGSIASNYVQWYQQRPGSSPRTVIYEDNQRPSGVPGRFSGSIDSSSNSASLTISGLKTEDEADYYCQSYDSTSVLFGGGTKLTVLGSRGGGGSGGGGSGGGGSLEMAEVQLVQSGAEVKKPGSSVKVSCKASGGTFSSNSLSWVRQAPGQGLEWMGRIFPILGITNYAQKFQGRVTITADKSTSTAYMELSSLRSEDTAVYYCARGNYQWYDAFDIWGQGTMVTVSSTSGQAGQHHHHHHGAYPYDVPDYAS
notes: as for B1
B8: ET200-123 (scFv)
scFv: QAVLTQPPSASGTPGQRVTISCSGSSSNIGSNTVNWYQQLPGTAPKLLMYNNDQRPSGVPDRFSGSKSGTSASLAISGLQSEDEADYYCAAWDDSLNGYVFGPGTKVTVLGSRGGGGSGGGGSGGGGSLEMAQVQLVESGAEVKKPGASVKVSCKASGYTFTSYGISWVRQAPGQGLEWMGWISAYNGNTNYAQKLQGRVTMTTDTSTSTAYMELRSLRSDDTAVYYCARDLSRGANPHYYYYYGMDVWGQGTTVTVSSTSGQAGQHHHHHHGAYPYDVPDYAS
notes: as for B1

SLAMF9 protein, sequence (Q96A28 19-236 limits assumed): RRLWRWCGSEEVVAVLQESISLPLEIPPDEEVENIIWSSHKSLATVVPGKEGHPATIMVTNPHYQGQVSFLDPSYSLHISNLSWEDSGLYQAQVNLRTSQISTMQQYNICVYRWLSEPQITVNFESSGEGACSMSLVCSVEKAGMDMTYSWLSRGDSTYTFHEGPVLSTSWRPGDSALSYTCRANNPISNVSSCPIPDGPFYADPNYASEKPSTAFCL

One assay concerns the target SLAMF9 protein (UniProt Q96A28 19-236, limits assumed). The assay can be described thus: phage clone on SLAMF9 protein.
On to B1, for which the binding result was “no binding”.

Regarding B2, the binding result is “no binding”.

For the molecule B3, the binding result is “no binding”.

As for B4, the binding result is listed as “no binding”.

Take B5: the binding result was “no binding”.

In the case of B6, the binding result is recorded as “no binding”.

Regarding B7, the binding result was “no binding”.

As for B8, the binding result is recorded as “no binding”.

A further assay has as its target T1, FcRL2, overexpressed on 3T3 cells. In words: phage clone on 3T3-FcRL2 cells.
Take B1: the binding result is “no binding”.

Regarding B2, the binding result is reported as “no binding”.

Turning to B3, the binding result was “no binding”.

As for B4, the binding result was “no binding”.

With B5, the binding result was “no binding”.

Consider B6, for which the binding result is “no binding”.

On to B7, for which the binding result is “no binding”.

In the case of B8, the binding result is “no binding”.

A further assay addresses T2, FcRL3, overexpressed on 3T3 cells. The assay can be described thus: phage clone on 3T3-FcRL3 cells.
On to B1, for which the binding result was “no binding”.

Consider B2, for which the binding result was “no binding”.

For the molecule B3, the binding result was “no binding”.

With B4, the binding result is “no binding”.

In the case of B5, the binding result is listed as “no binding”.

Regarding B6, the binding result is “no binding”.

Consider B7, for which the binding result is “no binding”.

For the molecule B8, the binding result is reported as “no binding”.

The target in the next assay is T3, FcRL4, overexpressed on 3T3 cells. The assay can be described thus: phage clone on 3T3-FcRL4 cells.
Take B1: the binding result is recorded as “no binding”.

As to B2, the binding result is given as “no binding”.

For B3, the binding result is given as “no binding”.

Consider B4, for which the binding result is listed as “no binding”.

On to B5, for which the binding result is listed as “no binding”.

With B6, the binding result is listed as “no binding”.

For B7, the binding result is recorded as “no binding”.

As for B8, the binding result is reported as “no binding”.

For another assay, the target named is T4, FcRL6, overexpressed on 3T3 cells. The assay can be described thus: phage clone on 3T3-FcRL6 cells.
Take B1: the binding result was “no binding”.

Turning to B2, the binding result is on record as “no binding”.

Take B3: the binding result is reported as “no binding”.

For the molecule B4, the binding result was “no binding”.

As for B5, the binding result is given as “no binding”.

As for B6, the binding result is given as “no binding”.

With B7, the binding result is recorded as “no binding”.

For the molecule B8, the binding result is listed as “no binding”.
